This note sets out measurements from PMC6921269.

Data set [1] has as its system CCCCCCCCCCCCCCCCCC(=O)CC(=O)SCCNC(C)=O. The data set can be described thus: purified protein. The settings on record: co-substrate C5 diketide-NAC, 37 °C, 20 min.
Data set [2] concerns CCCCCCCCCCCCCCCC(=O)CC(=O)SCCNC(C)=O. In words: purified protein. The settings on record: co-substrate C5 diketide-NAC, 37 °C, 20 min.

What is called Km is the concentration of substrate that gives half-maximal velocity. By kcat is commonly meant the number of substrate molecules converted per active site and unit of time at saturation. The kcat/Km is the turnover number divided by the Michaelis constant. On to CsyB (Aspergillus oryzae RIB40; I375F), for which, in data set [1], the Km stood at 6.5 ± 2.1 mM, the kcat came to 0.882 ± 0.14 s⁻¹ and the kcat/Km was 136 M⁻¹ s⁻¹. In data set [2], the Km amounted to 5.4 ± 1.8 mM, the kcat turned out to be 0.713 ± 0.075 s⁻¹ and the kcat/Km was 132 M⁻¹ s⁻¹.
